The text below walks through data of patent EP0946727B1.

Test [1] has as its target human CD11a (human) (UniProt P20701). Nature of the test: binding to Jurkat cells (FACScan).
Test [2] has the same target. Nature of the test: FACScan on Jurkat cells.
The target is the same in test [3]. Nature of the test: saturation binding, human lymphocytes, donor 2, Kd(app).
The target is the same in test [4]. Nature of the test: cell binding, human CD11a.
Test [5] shares this target. Nature of the test: saturation binding of 125I-antibody to human peripheral blood mononuclear cells, Kd(app).
For test [6] the target is unchanged. Nature of the test: cell-based or functional assay.
Test [7] shares this target. Nature of the test: blocking of Jurkat cell adhesion to human keratinocytes (ICAM-1).
Test [8] shares this target. Nature of the test: saturation binding, human lymphocytes, donor 1, Kd(app).
For test [9], the target named is rhesus CD18 (rhesus) (UniProt H9Z8N5). Briefly: blocking of rhesus lymphocyte adhesion to human keratinocytes.
The target is the same in test [10]. Briefly: blocking of rhesus lymphocyte adhesion to recombinant human ICAM-1 on plates.

human CD11a (human), sequence (P20701 26-1170): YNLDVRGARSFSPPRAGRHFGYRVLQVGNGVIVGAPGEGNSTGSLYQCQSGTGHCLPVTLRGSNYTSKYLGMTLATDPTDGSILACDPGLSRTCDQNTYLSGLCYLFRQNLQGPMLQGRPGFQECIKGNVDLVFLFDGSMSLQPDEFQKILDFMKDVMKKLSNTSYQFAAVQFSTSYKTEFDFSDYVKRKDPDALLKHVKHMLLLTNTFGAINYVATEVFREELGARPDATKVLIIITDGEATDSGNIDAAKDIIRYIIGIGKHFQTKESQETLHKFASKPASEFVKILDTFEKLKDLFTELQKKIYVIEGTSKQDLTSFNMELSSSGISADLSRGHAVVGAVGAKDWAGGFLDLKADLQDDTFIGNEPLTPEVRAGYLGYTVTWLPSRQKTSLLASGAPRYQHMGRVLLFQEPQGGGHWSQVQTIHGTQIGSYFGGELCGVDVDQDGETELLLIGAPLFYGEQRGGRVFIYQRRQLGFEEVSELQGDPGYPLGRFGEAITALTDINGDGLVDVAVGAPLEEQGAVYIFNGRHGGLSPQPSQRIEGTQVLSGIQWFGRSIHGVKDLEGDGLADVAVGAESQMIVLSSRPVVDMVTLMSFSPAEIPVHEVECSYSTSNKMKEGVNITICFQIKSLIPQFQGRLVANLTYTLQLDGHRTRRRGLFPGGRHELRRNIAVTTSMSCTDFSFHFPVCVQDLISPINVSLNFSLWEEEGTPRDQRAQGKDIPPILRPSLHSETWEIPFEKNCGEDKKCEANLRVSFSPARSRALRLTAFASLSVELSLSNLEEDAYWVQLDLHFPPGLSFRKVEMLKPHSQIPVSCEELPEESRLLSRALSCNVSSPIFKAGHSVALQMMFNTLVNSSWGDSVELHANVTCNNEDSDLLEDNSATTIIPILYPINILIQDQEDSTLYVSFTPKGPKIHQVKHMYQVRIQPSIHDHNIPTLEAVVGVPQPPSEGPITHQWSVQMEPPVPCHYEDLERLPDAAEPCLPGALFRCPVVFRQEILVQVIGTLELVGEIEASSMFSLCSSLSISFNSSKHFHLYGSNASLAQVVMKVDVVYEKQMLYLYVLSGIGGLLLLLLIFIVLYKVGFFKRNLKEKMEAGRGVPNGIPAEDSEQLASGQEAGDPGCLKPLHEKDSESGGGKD
humanized MHM24 IgG1 (antibody), sequence (main, form in doubt): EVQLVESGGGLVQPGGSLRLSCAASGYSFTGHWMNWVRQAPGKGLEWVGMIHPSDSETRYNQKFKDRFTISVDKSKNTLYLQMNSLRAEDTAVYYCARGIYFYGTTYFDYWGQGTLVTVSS
humanized MHM24 IgG1 (antibody), sequence (main, form in doubt): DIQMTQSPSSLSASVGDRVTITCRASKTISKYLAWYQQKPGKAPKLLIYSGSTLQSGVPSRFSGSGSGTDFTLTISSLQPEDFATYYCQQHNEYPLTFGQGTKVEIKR
murine MHM24 (antibody), sequence (main, form in doubt): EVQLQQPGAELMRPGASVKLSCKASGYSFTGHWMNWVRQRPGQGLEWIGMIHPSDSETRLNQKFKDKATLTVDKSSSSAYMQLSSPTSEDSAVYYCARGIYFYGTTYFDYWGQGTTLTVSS
murine MHM24 (antibody), sequence (main, form in doubt): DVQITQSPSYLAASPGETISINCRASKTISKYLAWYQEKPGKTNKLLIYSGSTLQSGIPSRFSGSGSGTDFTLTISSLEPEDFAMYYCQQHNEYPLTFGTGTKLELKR

The term EC50 denotes the concentration at which the effect is half-maximal. Higher therefore signals lower potency in that assay. What is called IC50 is the concentration at which inhibition is half-maximal. Turning to humanized MHM24 IgG1 (antibody), the EC50 with human CD11a (human) [1] came out at 0.042 nM. This substance also returned an EC50 F(ab)/EC50 F(ab)-2 with human CD11a (human) [2] of 0.004. In addition, the Kd in the test with human CD11a (human) [3] came out at 0.18 nM; with human CD11a (human) [5], 0.15 nM; with human CD11a (human) [8], 0.11 nM. Also, the Var.EC50/HuIgG1 EC50 in the test with human CD11a (human) [4] was found to be 1. In the test with human CD11a (human) [6], this substance had an IC50, human mixed lymphocyte response (MLR) of 0.38 nM. Besides, the IC50 with human CD11a (human) [7] was 0.13 nM.
For the substance murine MHM24 (antibody), the Kd with human CD11a (human) [3] amounted to 0.13 nM; with human CD11a (human) [5], 0.15 nM; with human CD11a (human) [8], 0.16 nM. Further, the IC50, human mixed lymphocyte response (MLR) in the test with human CD11a (human) [6] was 0.19 nM. In the test with human CD11a (human) [7], this substance showed an IC50 of 0.09 nM.
For the substance murine anti-human CD18 antibody MHM23, the IC50 with rhesus CD18 (rhesus) [9] is 1.6 nM; in the test with rhesus CD18 (rhesus) [10], 1.2 nM.
In the test with human CD11a (human) [2], chimeric MHM24 IgG1 (antibody) had an EC50 of 5.2 ng/mL and an EC50 F(ab)/EC50 F(ab)-2 of 0.006. Further, the IC50 with human CD11a (human) [7] was 0.1 nM.
